Experiments:
[1] = biological target: atToc159-A864R (expressed from CaMV35S::atTOC159-A864R in ppi2 plants, A864R:ppi2) (Arabidopsis thaliana) (UniProt O81283); experiment: cross-linking
[2] = substrate: Nc1nc2c(ncn2[C@@H]2O[C@H](COP(=O)(O)OP(=O)(O)OP(=O)(O)O)[C@@H](O)[C@H]2O)c(=O)[nH]1; experiment: GTP hydrolysis assay, immunoprecipitated protein on Sepharose beads; type: biochemical, Arabidopsis thaliana; conditions: antibody/protein A-Sepharose-bound receptor
[3] = substrate: Nc1nc2c(ncn2[C@@H]2O[C@H](COP(=O)(O)OP(=O)(O)OP(=O)(O)O)[C@@H](O)[C@H]2O)c(=O)[nH]1; experiment: GTP hydrolysis assay, purified soluble G-domain; type: biochemical, Arabidopsis thaliana

Row | fold of coimmunoprecipitated preSSu against wild-type atToc159 [1] | Molecule | Km [2] | kcat [2] | Km [3] | kcat [3]
1 | 3 fold | preSSu ([35S]-labeled chloroplast preprotein) (natural protein) |  |  |  | 
2 |  | atToc159 (full-length) (Arabidopsis thaliana) (protein) MDSKSVTPEPTNPFYASSGQSGKTYASVVAAAAAAAADKEDGGAVSSAKELDSSSEAVSGNSDKVGADDLSDSEKEKPNLVGDGKVSDEVDGSLKEDSTTPEATPKPEVVSGETIGVDDVSSLSPKPEAVSDGVGVVEENKKVKEDVEDIKDDGESKIENGSVDVDVKQASTDGESESKVKDVEEEDVGTKKDDEGESELGGKVDVDDKSDNVIEEEGVELTDKGDVIVNSSPVESVHVDVAKPGVVVVGDAEGSEELKINADAETLEVANKFDQIGDDDSGEFEPVSDKAIEEVEEKFTSESDSIADSSKLESVDTSAVEPEVVAAESGSEPKDVEKANGLEKGMTYAEVIKAASAVADNGTKEEESVLGGIVDDAEEGVKLNNKGDFVVDSSAIEAVNVDVAKPGVVVVGDVEVSEVLETDGNIPDVHNKFDPIGQGEGGEVELESDKATEEGGGKLVSEGDSMVDSSVVDSVDADINVAEPGVVVVGAAKEAVIKEDDKDDEVDKTISNIEEPDDLTAAYDGNFELAVKEISEAAKVEPDEPKVGVEVEELPVSESLKVGSVDAEEDSIPAAESQFEVRKVVEGDSAEEDENKLPVEDIVSSREFSFGGKEVDQEPSGEGVTRVDGSESEEETEEMIFGSSEAAKQFLAELEKASSGIEAHSDEANISNNMSDRIDGQIVTDSDEDVDTEDEGEEKMFDTAALAALLKAATGGGSSEGGNFTITSQDGTKLFSMDRPAGLSSSLRPLKPAAAPRANRSNIFSNSNVTMADETEINLSEEEKQKLEKLQSLRVKFLRLLQRLGHSAEDSIAAQVLYRLALLAGRQAGQLFSLDAAKKKAVESEAEGNEELIFSLNILVLGKAGVGKSATINSILGNQIASIDAFGLSTTSVREISGTVNGVKITFIDTPGLKSAAMDQSTNAKMLSSVKKVMKKCPPDIVLYVDRLDTQTRDLNNLPLLRTITASLGTSIWKNAIVTLTHAASAPPDGPSGTPLSYDVFVAQCSHIVQQSIGQAVGDLRLMNPSLMNPVSLVENHPLCRKNREGVKVLPNGQTWRSQLLLLCYSLKVLSETNSLLRPQEPLDHRKVFGFRVRSPPLPYLLSWLLQSRAHPKLPGDQGGDSVDSDIEIDDVSDSEQEDGEDDEYDQLPPFKPLRKTQLAKLSNEQRKAYFEEYDYRVKLLQKKQWREELKRMKEMKKNGKKLGESEFGYPGEEDDPENGAPAAVPVPLPDMVLPPSFDSDNSAYRYRYLEPTSQLLTRPVLDTHGWDHDCGYDGVNAEHSLALASRFPATATVQVTKDKKEFNIHLDSSVSAKHGENGSTMAGFDIQNVGKQLAYVVRGETKFKNLRKNKTTVGGSVTFLGENIATGVKLEDQIALGKRLVLVGSTGTMRSQGDSAYGANLEVRLREADFPIGQDQSSFGLSLVKWRGDLALGANLQSQVSVGRNSKIALRAGLNNKMSGQITVRTSSSDQLQIALTAILPIAMSIYKSIRPEATNDKYSMY | 3.2 ± 0.34 µM | 0.000233 ± 3.67e-05 s⁻¹ |  | 
3 |  | atToc159 (full-length) (Arabidopsis thaliana; A864R) (protein) MDSKSVTPEPTNPFYASSGQSGKTYASVVAAAAAAAADKEDGGAVSSAKELDSSSEAVSGNSDKVGADDLSDSEKEKPNLVGDGKVSDEVDGSLKEDSTTPEATPKPEVVSGETIGVDDVSSLSPKPEAVSDGVGVVEENKKVKEDVEDIKDDGESKIENGSVDVDVKQASTDGESESKVKDVEEEDVGTKKDDEGESELGGKVDVDDKSDNVIEEEGVELTDKGDVIVNSSPVESVHVDVAKPGVVVVGDAEGSEELKINADAETLEVANKFDQIGDDDSGEFEPVSDKAIEEVEEKFTSESDSIADSSKLESVDTSAVEPEVVAAESGSEPKDVEKANGLEKGMTYAEVIKAASAVADNGTKEEESVLGGIVDDAEEGVKLNNKGDFVVDSSAIEAVNVDVAKPGVVVVGDVEVSEVLETDGNIPDVHNKFDPIGQGEGGEVELESDKATEEGGGKLVSEGDSMVDSSVVDSVDADINVAEPGVVVVGAAKEAVIKEDDKDDEVDKTISNIEEPDDLTAAYDGNFELAVKEISEAAKVEPDEPKVGVEVEELPVSESLKVGSVDAEEDSIPAAESQFEVRKVVEGDSAEEDENKLPVEDIVSSREFSFGGKEVDQEPSGEGVTRVDGSESEEETEEMIFGSSEAAKQFLAELEKASSGIEAHSDEANISNNMSDRIDGQIVTDSDEDVDTEDEGEEKMFDTAALAALLKAATGGGSSEGGNFTITSQDGTKLFSMDRPAGLSSSLRPLKPAAAPRANRSNIFSNSNVTMADETEINLSEEEKQKLEKLQSLRVKFLRLLQRLGHSAEDSIAAQVLYRLALLAGRQAGQLFSLDAAKKKAVESEAEGNEELIFSLNILVLGKRGVGKSATINSILGNQIASIDAFGLSTTSVREISGTVNGVKITFIDTPGLKSAAMDQSTNAKMLSSVKKVMKKCPPDIVLYVDRLDTQTRDLNNLPLLRTITASLGTSIWKNAIVTLTHAASAPPDGPSGTPLSYDVFVAQCSHIVQQSIGQAVGDLRLMNPSLMNPVSLVENHPLCRKNREGVKVLPNGQTWRSQLLLLCYSLKVLSETNSLLRPQEPLDHRKVFGFRVRSPPLPYLLSWLLQSRAHPKLPGDQGGDSVDSDIEIDDVSDSEQEDGEDDEYDQLPPFKPLRKTQLAKLSNEQRKAYFEEYDYRVKLLQKKQWREELKRMKEMKKNGKKLGESEFGYPGEEDDPENGAPAAVPVPLPDMVLPPSFDSDNSAYRYRYLEPTSQLLTRPVLDTHGWDHDCGYDGVNAEHSLALASRFPATATVQVTKDKKEFNIHLDSSVSAKHGENGSTMAGFDIQNVGKQLAYVVRGETKFKNLRKNKTTVGGSVTFLGENIATGVKLEDQIALGKRLVLVGSTGTMRSQGDSAYGANLEVRLREADFPIGQDQSSFGLSLVKWRGDLALGANLQSQVSVGRNSKIALRAGLNNKMSGQITVRTSSSDQLQIALTAILPIAMSIYKSIRPEATNDKYSMY | 1.9 ± 0.30 µM | 7e-05 ± 1.7e-06 s⁻¹ |  | 
4 |  | atToc159 G-domain (atToc159G) (Arabidopsis thaliana) (protein) IFSLNILVLGKAGVGKSATINSILGNQIASIDAFGLSTTSVREISGTVNGVKITFIDTPGLKSAAMDQSTNAKMLSSVKKVMKKCPPDIVLYVDRLDTQTRDLNNLPLLRTITASLGTSIWKNAIVTLTHAASAPPDGPSGTPLSYDVFVAQCSHIVQQSIGQAVGDLRLMNPSLMNPVSLVENHPLCRKNREGVKVLPNGQTWRSQLLLLCYSLKVLSETNSLLRPQEPLDHRK |  |  | 9.0 ± 1.35 µM | 0.000317 ± 2.5e-05 s⁻¹
